This is an account of results in paper PMC11260479, “YY1 is involved in homologous recombination inhibition at guanine quadruplex sites in human cells”.

The series has as its target RAD51 (UniProt Q06609 1-339). The series is described as follows: EMSA; 2 mM ATP, 5 mM CaCl2; EMSA, 10 nM DNA. RAD51: 20 mM Tris-HCl pH 8.0, 30 mM NaCl, 1 mM DTT, 2 mM ATP, 5 mM CaCl2, 0.2% Tween 20, 37 C 15 min. BG4: 20 mM Tris-HCl pH 8.0, 30 mM KCl, 1. Particulars: protein: commercial; chain copies: 10; label: none (SYBR Gold stain); single strand. For orientation: In EMSA bound probe runs differently from free probe, usually more slowly.

Chain of RAD51 (Q06609 whole entry): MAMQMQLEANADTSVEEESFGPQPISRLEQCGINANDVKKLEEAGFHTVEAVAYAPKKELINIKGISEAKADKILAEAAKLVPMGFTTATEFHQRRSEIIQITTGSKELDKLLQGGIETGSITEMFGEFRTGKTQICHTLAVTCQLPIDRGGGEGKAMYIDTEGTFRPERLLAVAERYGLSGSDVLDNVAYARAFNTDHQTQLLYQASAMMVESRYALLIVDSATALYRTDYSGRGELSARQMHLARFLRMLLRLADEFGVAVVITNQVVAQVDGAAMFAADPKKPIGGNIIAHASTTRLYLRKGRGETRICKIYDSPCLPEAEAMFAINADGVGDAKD

B1: ss-DNA (ssDNA)
DNA: ATGGTGTGTGTAGGTTAATGTGAGGAGGAGAGGTGAAGAAGGAGGAGAGAAGAAGGAGGC
As for B1, the binding result is “binds”.
